Laboratory results reported in US20230257452A1 (GTINVENT, published 2023).
One block for each binder: values may come before it. Where no end group is shown, it is not given here. The star is where a group is joined. Biotin = O=C1N[C@H]2[C@H](CS[C@H]2CCCCC(=O)*)N1

Experiments:
[1] = target: T1, full length human tau protein (2N4R, isoform Tau-F, 441 amino acids) (human, UniProt P10636 1-758); experiment: ELISA, hT40 coated, scAb titrated
T1 construct: also called hT40; htau40

Tau 337-368 = Tau 337-368 (human); experiment: ELISA, antigen coated, scAb titrated; panel title 337-368
Excerpt: (§1) The plates were blocked with 2% MPBS and scAb samples added at desired starting concentrations and double diluted across the plate. Binding was detected using anti-Human C Kappa HRP conjugated secondary antibody and the resulting immunoreaction was developed and absorbance values measured as described above.

[2] = target: T2, N biotin 341-353 tau peptide (human); experiment: ELISA, biotinylated peptide on streptavidin, scAb titrated [B]
T2 peptide: Biotin-SEKLDFKDRVQSK
Procedure: Briefly, 5 μg/ml streptavidin (Thermo Fisher) was adsorbed to Nunc 96-well MaxiSorp plates and following incubation at 37° C. for 1 h, the plates were washed as normal and blocked with 2% MPBS. […] Subsequently, test scAbs at starting concentrations of 100-500 nM was added and double diluted across the plate for each peptide and incubated for 1 h at 37° C. Rest of the ELISA was conducted as described above and the plates were read at absorbance 450 nm. Immunoreactivity of the scAb of interest was quantified as the % of scAb was bound for each peptide at a chosen concentration (FIG. 15-20).

dGAE (tau 297-391) [3] = target: T3, dGAE (tau 297-391) (human, UniProt P10636 614-708); experiment: tau-tau immunoassay: scAb preincubated with 100 nM dGAE; blocked ligand: plate-bound dGA (1000 nM); bound dGAE detected with E2E8
T3 construct: also called dGAE95
Procedure: The adapted method is as follows: dGA (1000 nM) was adsorbed to a Nunc 96-well MaxiSorp plate and incubated for 1 h at 37° C. Plates were subsequently washed 3 times with PBST which was performed after each 1 h incubation. The plates were blocked with 2% (w/v) dried milk powder in PBS for 1 h at 37° C. […] The secondary antibody used was HRP-conjugated Anti-mouse IgG (1:1000 dilution, Sigma) and incubated at RT for 1 h. The plate was subsequently developed, and readings taken at absorbance 450 nm.

[4] = target: T1, full length human tau protein (2N4R, …); experiment: ELISA
Excerpt: as §1

Tau 1-319 = Tau 1-319 (human, UniProt P10636 1-636); experiment: ELISA
Excerpt: as §1

dGAE (tau 297-391) [5] = target: T3, dGAE (tau 297-391); experiment: ELISA, antigen coated, scAb titrated
Excerpt: as §1

dGAE aggregates [6] = target: T4, dGAE aggregates (human, UniProt P10636 614-708, limits assumed); experiment: capture ELISA, mAb coated at 1 ug/ml, dGAE aggregates titrated, S1G2 scAb detection
T4 construct: 100 µM dGAE aggregated with DTT at 37 °C, 700 rpm, 24 h; also called aggregated dGAE

dGA (tau 297-390) = dGA (tau 297-390) (human, UniProt P10636 614-707); experiment: ELISA
Excerpt: as §1

[7] = target: T1, full length human tau protein (2N4R, …); experiment: ELISA, hT40 coated, scAb titrated; remark: listed apart in the source
dGAE (tau 297-391) [8] = target: T3, dGAE (tau 297-391); experiment: sandwich ELISA, 423 mAb capture, dGAE titrated, scAb at 10 ug/ml as detector [cont) G-I]
Procedure: (§2) Following overnight agitation, one third of each sample was kept aside as ‘total’ and the rest was spun down at 16000×g for 30 min and separated into ‘supernatant’ and ‘pellet’. The pellet was then resuspended in half the original volume for further experiments. […] All double dilutions were done in final volumes of 100 μl. This was left to incubate on lab bench for 1 h followed by the addition of test scAbs at 10 μg/ml.

dGAE aggregates [9] = target: T4, dGAE aggregates; experiment: sandwich ELISA, 423 mAb capture, aggregation sample titrated, scAb at 10 ug/ml as detector [cont) G-I]
Procedure: as §2

T1 sequence (P10636 other isoform, or with tags, fused parts or gaps limits assumed): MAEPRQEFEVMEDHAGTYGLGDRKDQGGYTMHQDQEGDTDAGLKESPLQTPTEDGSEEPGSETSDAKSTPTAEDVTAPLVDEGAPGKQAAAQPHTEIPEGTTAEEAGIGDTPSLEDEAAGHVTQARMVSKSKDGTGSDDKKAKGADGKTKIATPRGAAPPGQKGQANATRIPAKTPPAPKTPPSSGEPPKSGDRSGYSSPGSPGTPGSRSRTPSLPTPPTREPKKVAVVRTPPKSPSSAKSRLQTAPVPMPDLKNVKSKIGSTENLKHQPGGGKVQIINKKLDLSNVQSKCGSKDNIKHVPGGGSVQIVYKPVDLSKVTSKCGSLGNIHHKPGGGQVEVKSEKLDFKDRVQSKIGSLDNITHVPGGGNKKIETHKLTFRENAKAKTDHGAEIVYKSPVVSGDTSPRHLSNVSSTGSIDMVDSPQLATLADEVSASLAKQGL
T3 sequence (P10636 614-708 limits assumed): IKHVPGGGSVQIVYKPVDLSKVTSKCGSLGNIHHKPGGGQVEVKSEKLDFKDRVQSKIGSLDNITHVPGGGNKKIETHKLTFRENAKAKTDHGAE
T4 sequence (P10636 614-708 limits assumed): as above
Sequence of Tau 1-319 (P10636 other isoform, or with tags, fused parts or gaps): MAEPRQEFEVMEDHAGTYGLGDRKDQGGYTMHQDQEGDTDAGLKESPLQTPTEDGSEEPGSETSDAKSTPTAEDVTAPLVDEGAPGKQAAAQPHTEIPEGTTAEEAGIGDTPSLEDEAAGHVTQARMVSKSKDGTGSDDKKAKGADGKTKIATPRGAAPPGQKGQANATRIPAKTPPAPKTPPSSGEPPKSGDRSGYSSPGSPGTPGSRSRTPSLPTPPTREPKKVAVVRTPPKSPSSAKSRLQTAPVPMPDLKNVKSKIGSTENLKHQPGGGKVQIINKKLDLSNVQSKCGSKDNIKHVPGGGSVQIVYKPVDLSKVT
Sequence of Tau 337-368 (human) (chain, as listed by the source): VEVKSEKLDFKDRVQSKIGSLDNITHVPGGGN
Sequence of dGA (tau 297-390) (P10636 614-707 limits assumed): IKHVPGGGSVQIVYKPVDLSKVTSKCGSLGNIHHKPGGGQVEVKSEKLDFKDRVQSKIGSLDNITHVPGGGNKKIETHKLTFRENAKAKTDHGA

EC50 (read off the curve) [1]: ~0.9 µg/mL | binding result (Tau 337-368): binds | binding result [2]: binds | B50 (dGAE (tau 297-391) [3]): 80 nM
B1: S1D12 scAb (scFv)
scFv: QVQLQESGPSLVKPSQTLSLTCTVSGFSLNNNAVGWVRQAPGKVPESLVGCSSDGTCYYNSALKSRLDITRDTSKNQISLSLSSVTTDDAAVYYCTRGHYSIYGYDYLGTIDYWGPGLLVTVSSEGKSSGASGESKVDDQAVLTQPSSVSGSLGQRVSITCSGSSSNVGGGNSVGWYQHLPGSGLKTIIYDTNSRPSGVPDRFSGSRSGNTATLTINSLQAEDEGDYYCVTGDSTTHDDLVGSGTRLTVLG
notes: not shown: human C kappa domain and hexa-His tag of the scAb format

binding result [4]: binds | binding result (Tau 1-319): binds
B2: CA7 scAb (scFv, V domains shown)
VH: RVRLQGSGPSLVKPSQTLSLTCTVSGFSFDSYYVGWVRQAPGKALEWLGNIYSTGRAFYNPALKSRLSITRDTSKSQVSLSVSSVTIEDTALYYCVRGSYYHGGGNGMVDFFDYWSPGLLVTVSS
VL: QVVRTQPSSVSGSLGQRVSITCSGSSSNVGYGNYVGWFQQVPGSAPKLLIYAATSRASGVPDRFSGSRSGNTATLTIDSLQAEDEADYYCSSYQRGNTGVFGSGTRLTVLG
notes: tested as scAb (VH-linker-VL-HuCk-His in one chain)

binding result (dGAE (tau 297-391) [5]): binds
B3: E2B7 scAb (scFv)
scFv: QVQLQESGPSLVKPSQTLSLTCTVSGFSLTSWGVAWVRQAPGKALEWLGTMRSGGGTEYNPALKSRLSITRDTSKSQVSLSLSSVTTEDMAMYYCARGYLSGIHYAWGRGLLVSVSSEGKSSGASGESKVDDQAVLTQLSSVSGSLGQRVSITCSGSSSNVGDGDYVGWFQQLPGSAPKLLIYSARNRASGVPDRFSGSRSGNTATLTITSLQAEDEADYYCASIDTSRSHIFGSGTRLTVLG
notes: as for B1

binding result (dGAE aggregates [6]): binds
B4: E2E8 mAb (antibody, mouse IgG2a, V domains shown)
VH: QVQLQESGPSLVKPSQTLSLTCTVSGFSLTDRGVAWVRQAPGKALEWVGTMRSGGTIDYNPALKSRLSITRDTSKSQVFLSLSSVTTEDMAMYYCARGYLSGDRYAWGRGLLVTVSS
VL: QAVLTQPSSVSKSLGQSVSIACSGSRSDIGYGNYVSWFQQIPGSAPKLLIYDTNTRASGVPDRFSGARSGNTATLTINSLQAEDEADYYCANIDSSRSHLFGSGTRLTVLG
notes: sheep-mouse (IgG2a) chimeric mAb

binding result (dGA (tau 297-390)): binds | binding result [7]: binds | binding result (dGAE (tau 297-391) [8]): binds | binding result (dGAE aggregates [9]): binds
B5: CB3 scAb (scFv)
scFv: QVQLQESGPSLVKPSQTLSLTCTVSGFSLSSVAVNWVRQAPGKVPEWLGGIISNGGTGYNPALKSRLSITRDTSKSQVSLALTHVTTEDTAVYYCGRGVEWEGSMDYLGPGLLVTVSSEGKSSGSGSETKVDDQSVLTQPSSVSGFLGQRVTITCSGSSSNVGAGSYVGWYQQVPGSGLRILIYGATKRASGLPDRFSGSRSGNTATLTISSLQAEDEADYYCVSYQTDFTLVFGSGTRLTVLG
notes: as for B1
